# Measurements taken from FireProtDB (doi:10.1016/j.bbapap.2007.05.016).
# “And” between values parts separate entries of the source, which are not always exact repeats. Equal entries are not always repeated.
# Settings: Streptomyces sp. (strain N174), Thermal, Fluorescence, reversible: No, whole UniProt chain shown
protein,measurement,setting,value
"Chitosanase wild type, P33665 (protein) MHSQHRTARIALAVVLTAIPASLATAGVGYASTQASTAVKAGAGLDDPHKKEIAMELVSSAENSSLDWKAQYKYIEDIGDGRGYTGGIIGFCSGTGDMLELVQHYTDLEPGNILAKYLPALKKVNGSASHSGLGTPFTKDWATAAKDTVFQQAQNDERDRVYFDPAVSQAKADGLRALGQFAYYDAIVMHGPGNDPTSFGGIRKTAMKKARTPAQGGDETTYLNAFLDARKAAMLTEAAHDDTSRVDTEQRVFLKAGNLDLNPPLKWKTYGDPYVINS",Tm,"pH 4.5, Sodium acetate 50 mM",53.5 °C and 54 °C
same,Tm,"pH 4.5, Sodium acetate 150 mM",44.4 °C
same,Tm,"pH 4.75, Sodium phosphate 50 mM",53.7 °C
same,Tm,"pH 7, Sodium phosphate 50 mM",41.3 °C
